Laboratory results published in PMC3311221 (Nature cell biology, 2011).

Biological target: the molecule itself
Test: SEC + other: glycerol gradient sedimentation

B1: polyhistidine-tagged full length TFG-1 (natural protein, C. elegans, UniProt Q9U1W1 1-486, looked up)
chain: MVHSNGAITSTILKARHADVVRKTSLHHANDLTLIDLVLNVQRLLALPSDANFVLKYKDEEGDLVTLAEDSDLLLALHTSGATLDVTVVVDSRAREAVHDVQKQVEQIKLDVGKLLGALSALDVAQIAEQSNTSVANLSAPKQSHHDNIVFQKSFEAAPPSPVPSEKAELPATIQPSVHEQFNHRPAHVEEEIPLENHYAPPPHQQIPDDLNTSFSSQPPPPIEQFGAIPPPNATIPSFPTSNAASPPVQEFAPPPPQQQQQQFQAPPPPMASHSSISSTPVQQQGFAPPQQFGGPPPSGPPSEYGGYAPPQQQQQQFGAPPPQGAPQQGFGAPPQGPPQGGPPQGSFGAPPPQQFHAPSPQSFGGPPPPVSSAPGNFAPPPQSGPPGAFAPPPSAFGAPQGPGGPGGYGPPPPGGPGAPGSYGPPQGGPGGFGPPPPGGPGAYGPPPTGFPPVGAPPPGAAGAPGGNPFARGPSATGYRQSPYQQ
  stoichiometry N: 6

B2: polyhistidine-tagged TFG-1 amino-terminus (amino acids 1-195) (domain or fragment, C. elegans, UniProt Q9U1W1 1-195, looked up)
chain: MVHSNGAITSTILKARHADVVRKTSLHHANDLTLIDLVLNVQRLLALPSDANFVLKYKDEEGDLVTLAEDSDLLLALHTSGATLDVTVVVDSRAREAVHDVQKQVEQIKLDVGKLLGALSALDVAQIAEQSNTSVANLSAPKQSHHDNIVFQKSFEAAPPSPVPSEKAELPATIQPSVHEQFNHRPAHVEEEIPL
  stoichiometry N: 8
